Results reported in PMC4052440.
Residue numbers refer to the chain shown, from its start. Names may count otherwise.

B1: yeast Atm1p (Saccharomyces cerevisiae S288C) (protein)
chain: SPVIFTVSKLSTQRPLLFNSAVNLWNQAQKDITHKKSVEQFSSAPKVKTQVKKTSKAPTLSELKILKDLFRYIWPKGNNKVRIRVLIALGLLISAKILNVQVPFFFKQTIDSMNIAWDDPTVALPAAIGLTILCYGVARFGSVLFGELRNAVFAKVAQNAIRTVSLQTFQHLMKLDLGWHLSRQTGGLTRAMDRGTKGISQVLTAMVFHIIPISFEISVVCGILTYQFGASFAAITFSTMLLYSIFTIKTTAWRTHFRRDANKADNKAASVALDSLINFEAVKYFNNEKYLADKYNGSLMNYRDSQIKVSQSLAFLNSGQNLIFTTALTAMMYMGCTGVIGGNLTVGDLVLINQLVFQLSVPLNFLGSVYRDLKQSLIDMETLFKLRKNEVKIKNAERPLMLPENVPYDITFENVTFGYHPDRKILKNASFTIPAGWKTAIVGSSGSGKSTILKLVFRFYDPESGRILINGRDIKEYDIDALRKVIGVVPQDTPLFNDTIWENVKFGRIDATDEEVITVVEKAQLAPLIKKLPQGFDTIVGERGLMISGGEKQRLAIARVLLKNARIMFFDEATSALDTHTEQALLRTIRDNFTSGSRTSVYIAHRLRTIADADKIIVLDNGRVREEGKHLELLAMPGSLYRELWTIQEDLDHLENELKDQQEL
B2: yeast Atm1p (Saccharomyces cerevisiae S288C; R284E) (protein)
chain: B1 chain with R258E

Substrate: Nc1ncnc2c1ncn2[C@@H]1O[C@H](COP(=O)(O)OP(=O)(O)OP(=O)(O)O)[C@@H](O)[C@H]1O
Test: ATPase assay
Assay type: biochemical, Saccharomyces cerevisiae
Conditions: Mg-ATP
[1] = no cluster, table prints the error as ± 5.3

Protein | Km [1] [µM] | kcat [1] [s⁻¹] | Km (from the cluster-activation fit, table title prints R48E, column R284E) [µM]
B1 | 54.6 ± 0.4 | 0.0322 ± 0.0005 | –
B2 | – | – | 55.0 ± 16.5
